Assay results as given in patent publication US20130095480A1 (BOARD OF TRUSTEES OF THE UNIVERSITY OF ARKANSAS, published 2013).

Target: T1, Chondroitin Sulfate Proteoglycan 4 (CSPG4) (human, UniProt Q6UVK1 30-2322, carries chondroitin sulfate (CS) glycosaminoglycan chains)
T1 construct: whole, on cells; also called High Molecular Weight Melanoma Associated Antigen; Melanoma Chondroitin Sulfate Proteoglycan
Experiment: flow cytometry, recombinant P-selectin/Fc on M14-CSPG4 versus mock-transfected M14 cells
Method: Briefly, cells were incubated with mAb or P-selectin/Fc, washed and stained with FITC-conjugated anti-mouse IgM or anti-human IgG prior to binding detection by flow cytometry. R-phycoerythrin-conjugated polyclonal goat anti-mouse F(ab′)₂ was used as secondary for detection of anti-CSPG4 binding.

T1 sequence (Q6UVK1 30-2322): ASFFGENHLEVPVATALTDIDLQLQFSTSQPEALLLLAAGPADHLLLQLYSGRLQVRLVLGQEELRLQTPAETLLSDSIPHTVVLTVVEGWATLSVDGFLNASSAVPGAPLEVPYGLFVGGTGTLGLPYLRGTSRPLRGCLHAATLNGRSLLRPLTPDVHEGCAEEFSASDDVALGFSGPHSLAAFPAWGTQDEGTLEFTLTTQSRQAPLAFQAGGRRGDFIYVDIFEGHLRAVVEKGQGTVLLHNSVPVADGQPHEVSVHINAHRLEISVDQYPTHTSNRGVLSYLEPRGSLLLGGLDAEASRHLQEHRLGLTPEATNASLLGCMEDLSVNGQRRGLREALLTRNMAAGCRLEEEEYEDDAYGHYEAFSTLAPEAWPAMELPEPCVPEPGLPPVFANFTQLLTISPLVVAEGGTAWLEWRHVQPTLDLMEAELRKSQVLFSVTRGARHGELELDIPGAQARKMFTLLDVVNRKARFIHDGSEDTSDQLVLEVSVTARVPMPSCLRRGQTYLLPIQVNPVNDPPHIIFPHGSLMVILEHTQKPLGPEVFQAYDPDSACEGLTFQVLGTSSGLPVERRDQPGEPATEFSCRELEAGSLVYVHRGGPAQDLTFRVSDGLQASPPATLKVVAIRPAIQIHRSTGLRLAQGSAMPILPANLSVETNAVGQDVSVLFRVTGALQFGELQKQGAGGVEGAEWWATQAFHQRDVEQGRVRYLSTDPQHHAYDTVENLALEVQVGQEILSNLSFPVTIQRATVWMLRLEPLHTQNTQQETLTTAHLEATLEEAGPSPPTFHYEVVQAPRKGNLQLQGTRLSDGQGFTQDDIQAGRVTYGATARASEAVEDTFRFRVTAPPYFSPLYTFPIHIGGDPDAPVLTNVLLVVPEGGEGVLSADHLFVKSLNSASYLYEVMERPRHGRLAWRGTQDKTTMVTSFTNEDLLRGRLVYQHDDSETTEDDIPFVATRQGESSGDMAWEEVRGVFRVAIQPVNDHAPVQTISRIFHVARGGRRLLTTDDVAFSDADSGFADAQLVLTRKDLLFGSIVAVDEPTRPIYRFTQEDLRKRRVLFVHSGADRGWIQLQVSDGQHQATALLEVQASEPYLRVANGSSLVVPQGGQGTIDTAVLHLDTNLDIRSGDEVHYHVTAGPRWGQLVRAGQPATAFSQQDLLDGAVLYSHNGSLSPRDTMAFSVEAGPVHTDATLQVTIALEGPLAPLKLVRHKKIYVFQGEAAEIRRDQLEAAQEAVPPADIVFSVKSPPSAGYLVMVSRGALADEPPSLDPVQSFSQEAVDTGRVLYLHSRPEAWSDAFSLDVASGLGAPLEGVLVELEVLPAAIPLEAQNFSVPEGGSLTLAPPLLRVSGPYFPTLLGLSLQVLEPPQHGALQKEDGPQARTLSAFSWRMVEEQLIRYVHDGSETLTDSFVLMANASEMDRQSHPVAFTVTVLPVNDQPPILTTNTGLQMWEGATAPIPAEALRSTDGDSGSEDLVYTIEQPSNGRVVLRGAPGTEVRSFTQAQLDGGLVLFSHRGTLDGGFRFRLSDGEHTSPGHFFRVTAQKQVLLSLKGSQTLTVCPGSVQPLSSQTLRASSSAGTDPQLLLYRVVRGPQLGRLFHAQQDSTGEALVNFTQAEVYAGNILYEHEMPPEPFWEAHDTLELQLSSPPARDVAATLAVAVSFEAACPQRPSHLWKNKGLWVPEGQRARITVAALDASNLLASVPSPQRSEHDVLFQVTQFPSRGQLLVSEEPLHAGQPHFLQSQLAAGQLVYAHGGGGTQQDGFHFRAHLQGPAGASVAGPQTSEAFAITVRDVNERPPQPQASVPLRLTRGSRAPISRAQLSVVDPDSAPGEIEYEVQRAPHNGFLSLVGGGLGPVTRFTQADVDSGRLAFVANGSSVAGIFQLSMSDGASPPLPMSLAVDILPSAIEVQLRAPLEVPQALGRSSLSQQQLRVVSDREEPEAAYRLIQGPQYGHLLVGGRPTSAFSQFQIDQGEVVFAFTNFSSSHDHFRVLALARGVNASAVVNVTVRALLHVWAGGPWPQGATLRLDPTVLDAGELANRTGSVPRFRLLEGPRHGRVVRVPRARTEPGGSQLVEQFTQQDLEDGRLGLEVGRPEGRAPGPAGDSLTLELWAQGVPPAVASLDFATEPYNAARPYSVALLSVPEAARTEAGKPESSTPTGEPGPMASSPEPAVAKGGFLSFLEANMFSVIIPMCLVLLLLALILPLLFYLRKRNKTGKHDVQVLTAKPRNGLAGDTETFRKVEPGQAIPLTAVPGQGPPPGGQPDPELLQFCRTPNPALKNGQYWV

B1: recombinant human P-selectin/Fc (human IgG) (Fc fusion, UniProt P16109 42-771, looked up)
chain: WTYHYSTKAYSWNISRKYCQNRYTDLVAIQNKNEIDYLNKVLPYYSSYYWIGIRKNNKTWTWVGTKKALTNEAENWADNEPNNKRNNEDCVEIYIKSPSAPGKWNDEHCLKKKHALCYTASCQDMSCSKQGECLETIGNYTCSCYPGFYGPECEYVRECGELELPQHVLMNCSHPLGNFSFNSQCSFHCTDGYQVNGPSKLECLASGIWTNKPPQCLAAQCPPLKIPERGNMTCLHSAKAFQHQSSCSFSCEEGFALVGPEVVQCTASGVWTAPAPVCKAVQCQHLEAPSEGTMDCVHPLTAFAYGSSCKFECQPGYRVRGLDMLRCIDSGHWSAPLPTCEAISCEPLESPVHGSMDCSPSLRAFQYDTNCSFRCAEGFMLRGADIVRCDNLGQWTAPAPVCQALQCQDLPVPNEARVNCSHPFGAFRYQSVCSFTCNEGLLLVGASVLQCLATGNWNSVPPECQAIPCTPLLSPQNGTMTCVQPLGSSSYKSTCQFICDEGYSLSGPERLDCTRSGRWTDSPPMCEAIKCPELFAPEQGSLDCSDTRGEFNVGSTCHFSCDNGFKLEGPNNVECTTSGRWSATPPTCKGIASLPTPGVQCPALTTPGQGTMYCRHHPGTFGFNTTCYFGCNAGFTLIGDSTLSCRPSGQWTAVTPACRAVKCSELHVNKPIAMNCSNLWGNFSYGSICSFHCLEGQLLNGSAQTACQENGHWSTTVPTCQAGPLTIQEA
notes: Bought reagent (R&D Systems); also called recombinant P-selectin; not shown: Fc of human IgG
binding result: binds
